Data as given in US20260242478A1 (published 2026).
Where no end group is shown, it is not given here.

Experiments:
[1] = target: T1, Anti-CD28 Fab (SEQ ID NOs: 696, 697); experiment: phage ELISA; plate-bound anti-CD28 Fab pre-incubated with CD28 antigen as competitor, anti-M13 HRP detection
T1 construct: In the phage ELISA the Fab was biotinylated and captured on neutravidin coated plates
T1 sequence (VH, as listed by the source, chain 1 of 2): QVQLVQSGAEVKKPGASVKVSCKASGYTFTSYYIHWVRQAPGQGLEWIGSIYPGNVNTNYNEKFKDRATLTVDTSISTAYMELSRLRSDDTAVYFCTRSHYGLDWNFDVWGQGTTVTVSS
T1 sequence (VL, as listed by the source, chain 2 of 2): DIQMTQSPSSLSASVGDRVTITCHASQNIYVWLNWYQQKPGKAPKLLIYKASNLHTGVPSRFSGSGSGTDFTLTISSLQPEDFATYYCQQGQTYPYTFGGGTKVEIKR
Procedure: (§1) After panning, phage infected bacteria were plated out and colonies picked into 96 well blocks. Clonal phage was then amplified and separated from bacterial cells via centrifugation.
(§2) Clonal phage were harvested as crude supematants and screened via standard ELISAs. […] Prior to the addition of clonal phage, wells were incubated with blocking buffer and CD28 antigen or blocking buffer alone. Without washing or aspirating, clonal phage supematants were then added to the wells and incubated for a short time. Wells were then washed followed by detection of bound phage using a horse radish conjugated anti-M13 antibody. Clonal phage of interest were then sent for sequence analysis.

[2] = target: T1, Anti-CD28 Fab (SEQ ID NOs: 696, 697); experiment: phage ELISA; biotinylated anti-CD28 Fab on neutravidin plate, clonal phage supernatant, anti-M13 HRP detection;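 note: crude supernatants of single phage clones picked after panning were screened for binding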
[3] = target: T2, Anti-CD28 Fab (SEQ ID NOs: 696, 697); experiment: phage binding ELISA on captured anti-CD28 Fab; competitor: CD28 antigen
T2 construct: In the phage ELISA the Fab was biotinylated and captured on neutravidin coated plates
T2 sequence (VH, as listed by the source, chain 1 of 2): as the sequence (VH, as listed by the source, chain 1 of 2) above
T2 sequence (VL, as listed by the source, chain 2 of 2): as the sequence (VL, as listed by the source, chain 2 of 2) above
Procedure: as §1, §2

[4] = target: T2, Anti-CD28 Fab (SEQ ID NOs: 696, 697); experiment: phage binding ELISA; biotinylated anti-CD28 Fab on neutravidin plate, bound phage detected with anti-M13 HRP;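 note: crude supernatants of clonal phage screened, wells pretreated with blocking buffer with or without CD28 antigen before brief phage incubation, washed, then bound phage detected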
Procedure: as §1, §2

[5] = target: Anti-CD28 Fab (SEQ ID NOs: 696, 697); experiment: phage binding ELISA; captured anti-CD28 Fab pre-incubated with CD28 antigen as competitor, anti-M13 HRP
Target sequence in this assay (VH, as listed by the source, chain 1 of 2): as the sequence (VH, as listed by the source, chain 1 of 2) above
Target sequence in this assay (VL, as listed by the source, chain 2 of 2): as the sequence (VL, as listed by the source, chain 2 of 2) above
Procedure: as §1, §2

[6] = target: Anti-CD28 Fab (SEQ ID NOs: 696, 697); experiment: phage binding ELISA; biotinylated anti-CD28 Fab on neutravidin plate, clonal phage supernatant, anti-M13 HRP;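 note: crude clonal phage supernatants screened after wells were preincubated either with CD28 antigen in blocking buffer or with blocking buffer only, phage added without washing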
Target sequence in this assay (VH, as listed by the source, chain 1 of 2): as the sequence (VH, as listed by the source, chain 1 of 2) above
Target sequence in this assay (VL, as listed by the source, chain 2 of 2): as the sequence (VL, as listed by the source, chain 2 of 2) above
Procedure: as §1, §2

[7] = target: T3, Anti-CD28 Fab (SEQ ID NOs: 696, 697); experiment: phage ELISA; biotinylated anti-CD28 Fab on neutravidin plate, clonal phage supernatant, anti-M13 HRP
T3 construct: In the phage ELISA the Fab was biotinylated and captured on neutravidin coated plates
T3 sequence (VH, as listed by the source, chain 1 of 2): as the sequence (VH, as listed by the source, chain 1 of 2) above
T3 sequence (VL, as listed by the source, chain 2 of 2): as the sequence (VL, as listed by the source, chain 2 of 2) above

[8] = target: T3, Anti-CD28 Fab (SEQ ID NOs: 696, 697); experiment: phage ELISA; captured anti-CD28 Fab pre-incubated with CD28 antigen as competitor, anti-M13 HRP;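 note: crude clonal phage supernatants added without washing after CD28 pre-incubation, bound phage detected with HRP anti-M13 antibody, reference wells got blocking buffer lacking CD28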
Procedure: as §1, §2

## YCDGHAPEYMLKCL (Tested as clonal phage supernatant) [Phage-601]
[1]
  Phage binding ELISA, Anti-CD28 Fab signal in the presence of CD28: 0.07
[2]
  Phage binding ELISA, Anti-CD28 Fab signal: 2.2

## YCEGHAPEYMLKCL (Tested as clonal phage supernatant) [Phage-597]
[1]
  Phage binding ELISA, Anti-CD28 Fab signal in the presence of CD28: 0.07
[2]
  Phage binding ELISA, Anti-CD28 Fab signal: 2.21

## YCDGHAPDYMLKCL (Tested as clonal phage supernatant) [Phage-602]
[1]
  Phage binding ELISA, Anti-CD28 Fab signal in the presence of CD28: 0.09
[2]
  Phage binding ELISA, Anti-CD28 Fab signal: 2.2

B1: Phage-577 (peptide)
peptide: YCEGHSPLYMWKCL
modifications: cysteine pairing not given here; also: displayed on phage by fusion to pIII, pIII and linker sequence not given here
[3]
  Anti-CD28 Fab signal in the presence of CD28: 0.06
[4]
  Anti-CD28 Fab signal: 2.25

## YCDGHAPEYMEKCM (Tested as clonal phage supernatant) [Phage-598]
[1]
  Phage binding ELISA, Anti-CD28 Fab signal in the presence of CD28: 0.07
[2]
  Phage binding ELISA, Anti-CD28 Fab signal: 2.21

## YCEGHSPEYMYKCL [Phage-589]
[5]
  Anti-CD28 Fab signal in the presence of CD28: 0.1
[6]
  Anti-CD28 Fab (SEQ ID NOs: 696, 697) signal: 2.23

B2: Phage-575 (peptide)
peptide: YCEGHLPMYMEKCL
modifications: cysteine pairing not given here; also: displayed on phage by fusion to pIII, pIII and linker sequence not given here
[3]
  Anti-CD28 Fab signal in the presence of CD28: 0.1
[4]
  Anti-CD28 Fab signal: 2.25

## YCEGHLPEYMQKCM [Phage-587]
[5]
  Anti-CD28 Fab signal in the presence of CD28: 0.08
[6]
  Anti-CD28 Fab (SEQ ID NOs: 696, 697) signal: 2.23

## YCDGHMPEYIAKCL (Tested as clonal phage supernatant) [Phage-604]
[1]
  Phage binding ELISA, Anti-CD28 Fab signal in the presence of CD28: 0.08
[2]
  Phage binding ELISA, Anti-CD28 Fab signal: 2.19

## YCEGHAAEYMTKCL (Tested as clonal phage supernatant) [Phage-594]
[1]
  Phage binding ELISA, Anti-CD28 Fab signal in the presence of CD28: 0.08
[2]
  Phage binding ELISA, Anti-CD28 Fab signal: 2.22

B3: Phage-606 (peptide)
peptide: YCAGHLPEYFLKCL
notes: Clonal phage of the Peptide-87 library, tested as crude phage supernatant; not shown: pIII of the bacteriophage to which the peptide is fused
[7]
  Anti-CD28 Fab signal (phage binding ELISA): 2.19
[8]
  Anti-CD28 Fab signal in the presence of CD28 (phage binding ELISA): 0.08

## YCEGHLPMYMDKCL [Phage-591]
[5]
  Anti-CD28 Fab signal in the presence of CD28: 0.07
[6]
  Anti-CD28 Fab (SEQ ID NOs: 696, 697) signal: 2.22

## YCDGHKAEYMDKCL (Tested as clonal phage supernatant) [Phage-600]
[1]
  Phage binding ELISA, Anti-CD28 Fab signal in the presence of CD28: 0.07
[2]
  Phage binding ELISA, Anti-CD28 Fab signal: 2.2

## YCEGHSPQYMWKCL (Tested as clonal phage supernatant) [Phage-593]
[1]
  Phage binding ELISA, Anti-CD28 Fab signal in the presence of CD28: 0.12
[2]
  Phage binding ELISA, Anti-CD28 Fab signal: 2.22

B4: Phage-578 (peptide)
peptide: YCEGHSPEYMEKCL
modifications: cysteine pairing not given here; also: displayed on phage by fusion to pIII, pIII and linker sequence not given here
[3]
  Anti-CD28 Fab signal in the presence of CD28: 0.07
[4]
  Anti-CD28 Fab signal: 2.24

B5: Phage-574 (peptide)
peptide: YCDGHLPEYLWKCL
modifications: cysteine pairing not given here; also: displayed on phage by fusion to pIII, pIII and linker sequence not given here
[3]
  Anti-CD28 Fab signal in the presence of CD28: 0.13
[4]
  Anti-CD28 Fab signal: 2.26

## YCAGHLPEYMEKCL [Phage-579]
[5]
  Anti-CD28 Fab signal in the presence of CD28: 0.12
[6]
  Anti-CD28 Fab (SEQ ID NOs: 696, 697) signal: 2.24

## YCDGHLPQYMNKCL [Phage-585]
[5]
  Anti-CD28 Fab signal in the presence of CD28: 0.1
[6]
  Anti-CD28 Fab (SEQ ID NOs: 696, 697) signal: 2.23

## YCDGHLPEYLPKCL (Tested as clonal phage supernatant) [Phage-603]
[1]
  Phage binding ELISA, Anti-CD28 Fab signal in the presence of CD28: 0.09
[2]
  Phage binding ELISA, Anti-CD28 Fab signal: 2.19

## YCEGHAPMYMWKCL [Phage-586]
[5]
  Anti-CD28 Fab signal in the presence of CD28: 0.08
[6]
  Anti-CD28 Fab (SEQ ID NOs: 696, 697) signal: 2.23

## YCEGHTVEYMAKCL (Tested as clonal phage supernatant) [Phage-599]
[1]
  Phage binding ELISA, Anti-CD28 Fab signal in the presence of CD28: 0.08
[2]
  Phage binding ELISA, Anti-CD28 Fab signal: 2.2

## YCEGHAWEYMAKCL [Phage-580]
[5]
  Anti-CD28 Fab signal in the presence of CD28: 0.07
[6]
  Anti-CD28 Fab (SEQ ID NOs: 696, 697) signal: 2.24

## YCQGHLPIYMEKCL [Phage-583]
[5]
  Anti-CD28 Fab signal in the presence of CD28: 0.09
[6]
  Anti-CD28 Fab (SEQ ID NOs: 696, 697) signal: 2.24

## YCDGHSMEYMSKCL [Phage-590]
[5]
  Anti-CD28 Fab signal in the presence of CD28: 0.09
[6]
  Anti-CD28 Fab (SEQ ID NOs: 696, 697) signal: 2.22

## YCEGHLPQYMKKCL (Tested as clonal phage supernatant) [Phage-595]
[1]
  Phage binding ELISA, Anti-CD28 Fab signal in the presence of CD28: 0.1
[2]
  Phage binding ELISA, Anti-CD28 Fab signal: 2.22

B6: Phage-608 (peptide)
peptide: YCDGHLPEYMHKCL
notes: as for B3
[7]
  Anti-CD28 Fab signal (phage binding ELISA): 2.19
[8]
  Anti-CD28 Fab signal in the presence of CD28 (phage binding ELISA): 0.09

## YCDGHIEEYRAKCL (Tested as clonal phage supernatant) [Phage-596]
[1]
  Phage binding ELISA, Anti-CD28 Fab signal in the presence of CD28: 0.07
[2]
  Phage binding ELISA, Anti-CD28 Fab signal: 2.21

B7: Phage-605 (peptide)
peptide: YCDGHLPEYLSKCL
notes: as for B3
[7]
  Anti-CD28 Fab signal (phage binding ELISA): 2.19
[8]
  Anti-CD28 Fab signal in the presence of CD28 (phage binding ELISA): 0.07

## YCDGHSQEYMAKCL [Phage-582]
[5]
  Anti-CD28 Fab signal in the presence of CD28: 0.08
[6]
  Anti-CD28 Fab (SEQ ID NOs: 696, 697) signal: 2.24

## YCDGHSAEYMAKCL [Phage-588]
[5]
  Anti-CD28 Fab signal in the presence of CD28: 0.07
[6]
  Anti-CD28 Fab (SEQ ID NOs: 696, 697) signal: 2.23

B8: Phage-607 (peptide)
peptide: YCDGHSPLYIWKCL
notes: as for B3
[7]
  Anti-CD28 Fab signal (phage binding ELISA): 2.19
[8]
  Anti-CD28 Fab signal in the presence of CD28 (phage binding ELISA): 0.09

## YCDGHLPLYLAKCL [Phage-584]
[5]
  Anti-CD28 Fab signal in the presence of CD28: 0.09
[6]
  Anti-CD28 Fab (SEQ ID NOs: 696, 697) signal: 2.23

B9: Phage-576 (peptide)
peptide: YCDGHLSEYMEKCL
modifications: cysteine pairing not given here; also: displayed on phage by fusion to pIII, pIII and linker sequence not given here
[3]
  Anti-CD28 Fab signal in the presence of CD28: 0.08
[4]
  Anti-CD28 Fab signal: 2.25

## YCDGHRGEYLQKCL (Tested as clonal phage supernatant) [Phage-592]
[1]
  Phage binding ELISA, Anti-CD28 Fab signal in the presence of CD28: 0.09
[2]
  Phage binding ELISA, Anti-CD28 Fab signal: 2.22

## YCQGHLPEYMNKCL [Phage-581]
[5]
  Anti-CD28 Fab signal in the presence of CD28: 0.08
[6]
  Anti-CD28 Fab (SEQ ID NOs: 696, 697) signal: 2.24

B10: Phage-610 (peptide)
peptide: YCDGHLPQYKAKCL
notes: as for B3
[7]
  Anti-CD28 Fab signal (phage binding ELISA): 2.19
[8]
  Anti-CD28 Fab signal in the presence of CD28 (phage binding ELISA): 0.09

B11: Phage-609 (peptide)
peptide: YCDGHLPEYIEKCL
notes: as for B3
[7]
  Anti-CD28 Fab signal (phage binding ELISA): 2.19
[8]
  Anti-CD28 Fab signal in the presence of CD28 (phage binding ELISA): 0.07
